Experimental data taken from the RNAGym collection of RNA variant scans (doi:10.1093/molbev/msab373).

B1: Azoarcus group I ribozyme (parent)
chain: GUGCCUUGCGCCGGGAAACCACGCAAGGGAUGGUGUCAAAUUCGGCGAAACCUAAGCGCCCGCCCGGGCGUAUGGCAACGCCGAGCCAAGCUUCGGCGCCUGCGCCGAUGAAGGUGUAGAGACUAGACGGCACCCACCUAAGGCAAACGCUAUGGUGAAGGCAUAGUCCAGGGAGUGGCGAAAGUCACACAAACCGG

Variants of: B1
Assay: reverse-splicing fitness (ratio to wild type); higher = more active; in vitro selection; Mg2+ level not given
How it was run: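 An in vitro group I ribozyme library with randomized positions was T7-transcribed and gel-purified. In triplicate, 10 pmol RNA in EPPS pH 7.5 was reacted with 50 pmoles of a 30-nt RNA substrate for 1 h at 37 °C across several added MgCl2 levels (1–48 mM), then stopped with EDTA. Products were reverse transcribed from a substrate-complementary primer, PCR-amplified and sequenced (HiSeq 4000). Fitness is a variant's read proportion after selection over that before, normalised to wild type.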

Row | Variant | reverse-splicing fitness
1 | C82G A120U A145U C169A U176G | 0.0013
2 | C82G A120U C150G C169U U176G | 0.0022
3 | C82G A120U C150G C169U U176C | 0.00347
4 | C82G A120U C150G C169U U176A | 0.00369
5 | C82G A120U A145C C150U C169U U176A | 0.00246
6 | C82G A120U A145C C150U C169U U176C | 0.00227
7 | C82G A120U A145C C150U C169U U176G | 0.00165
8 | C82G A120U A145G C150A C169G | 0.00459
9 | C82G A120U A145G C150A C169A | 0.00575
10 | C82G A120U A145G C150A C169U | 0.00376
11 | C82G A120U C150A C169U U176C | 0.00296
12 | C82G A120U C150A C169U U176G | 0.00185
13 | C82G A120U C150A C169U U176A | 0.00396
14 | C82G A120U C169G U176G | 0.00147
15 | C82G A120U C169G U176C | 0.00322
16 | C82G A120U C169G U176A | 0.00367
17 | C82G A120G A145U C169A U176C | 0.0199
18 | C82G A120G A145U C169A U176A | 0.0122
19 | C82G A120G A145U C169A U176G | 0.00363
20 | C82G A120U A145C C150G C169G U176A | 0.00247
21 | C82G A120U A145C C150G C169G U176C | 0.00209

Row | Variant | reverse-splicing fitness
22 | C82G A120U A145C C150G C169G U176G | 0.00178
23 | C82G A120G C150A C169G U176C | 0.0228
24 | C82G A120G C150A C169G U176A | 0.0215
25 | C82G A120G C150A C169G U176G | 0.00479
26 | C82G A120U A145C C169A U176C | 0.00168
27 | C82G A120U A145C C169A U176A | 0.00185
28 | C82G A120U A145C C169A U176G | 0.00157
29 | C82G A120U C150A C169G U176A | 0.00631
30 | C82G A120U C150A C169G U176C | 0.00368
31 | C82G A120U C150A C169G U176G | 0.00199
32 | C82G A120U C150A U176A | 0.0102
33 | C82G A120U C150A U176C | 0.0129
34 | C82G A120U C150A U176G | 0.00569
35 | C82G A120U A145G C150G U176C | 0.0152
36 | C82G A120U A145G C150G U176G | 0.0041
37 | C82G A120U A145G C150G U176A | 0.00899
38 | C82G A120U A145C C150A C169U U176C | 0.00224
39 | C82G A120U A145C C150A C169U U176A | 0.0023
40 | C82G A120U A145C C150A C169U U176G | 0.00162
41 | C82G A120G A145U U176C | 0.0191
42 | C82G A120G A145U U176G | 0.0047

Row | Variant | reverse-splicing fitness
43 | C82G A120G A145U U176A | 0.0157
44 | C82G A120U A145G C150U C169G U176A | 0.00552
45 | C82G A120U A145G C150U C169G U176C | 0.00419
46 | C82G A120U A145G C150U C169G U176G | 0.00186
47 | C82G A120U A145U C150G C169G U176C | 0.0022
48 | C82G A120U A145U C150G C169G U176A | 0.00237
49 | C82G A120U A145U C150G C169G U176G | 0.00182
50 | C82G A120U A145U C150G C169A U176A | 0.0026
51 | C82G A120U A145U C150G C169A U176C | 0.00187
52 | C82G A120U A145U C150G C169A U176G | 0.00205
53 | C82G A120U A145G C169G U176C | 0.00438
54 | C82G A120U A145G C169G U176G | 0.00145
55 | C82G A120U A145G C169G U176A | 0.00368
56 | C82G A120G C169A U176C | 0.0252
57 | C82G A120G C169A U176A | 0.0209
58 | C82G A120G C169A U176G | 0.00403
59 | C82G A120G A145U C150U C169U U176A | 0.0201
60 | C82G A120G A145U C150U C169U U176C | 0.0181
61 | C82G A120G A145U C150U C169U U176G | 0.00413
62 | C82G A120U C150G C169A U176G | 0.00278
63 | C82G A120U C150G C169A U176A | 0.00571

Row | Variant | reverse-splicing fitness
64 | C82G A120U C150G C169A U176C | 0.00402
65 | C82G A120U A145U C150G U176C | 0.0112
66 | C82G A120U A145U C150G U176A | 0.00715
67 | C82G A120U A145U C150G U176G | 0.00267
68 | C82G A120G C150G U176C | 0.0105
69 | C82G A120G C150G U176A | 0.00652
70 | C82G A120G C150G U176G | 0.00387
71 | C82G A120U A145U C150U C169A U176G | 0.00157
72 | C82G A120U A145U C150U C169A U176A | 0.00183
73 | C82G A120U A145U C150U C169A U176C | 0.00197
74 | C82G A120U A145G C169A U176G | 0.00159
75 | C82G A120U A145G C169A U176C | 0.00321
76 | C82G A120U A145G C169A U176A | 0.00356
77 | C82G A120U C150U C169A | 0.00461
78 | C82G A120U C150U C169U | 0.00575
79 | C82G A120U C150U C169G | 0.00527
80 | C82G A120U C150G C169G U176C | 0.00277
81 | C82G A120U C150G C169G U176G | 0.00218
82 | C82G A120U C150G C169G U176A | 0.00454
83 | C82G A120G C150A C169U | 0.00945
84 | C82G A120G C150A C169G | 0.0133
